B1: wild-type human ERp23 (protein)
chain: DRAPLTATAPQLDDEEMYSAHMPAHLRCDACRAVAYQMWQNLAKAETKLHTSNSGGRRELSELVYTDVLDRSCSRNWQDYGVREVDQVKRLTGPGLSEGPEPSISVMVTGGPWPTRLSRTCLHYLGEFGEDQIYEAHQQGRGALEALLCGGPQGACSEKVSATREEL
B2: human ERp23 Cys53Ser mutant (protein)
chain: DRAPLTATAPQLDDEEMYSAHMPAHLRCDASRAVAYQMWQNLAKAETKLHTSNSGGRRELSELVYTDVLDRSCSRNWQDYGVREVDQVKRLTGPGLSEGPEPSISVMVTGGPWPTRLSRTCLHYLGEFGEDQIYEAHQQGRGALEALLCGGPQGACSEKVSATREEL
B3: human ERp23 Cys143Ser mutant (protein)
chain: DRAPLTATAPQLDDEEMYSAHMPAHLRCDACRAVAYQMWQNLAKAETKLHTSNSGGRRELSELVYTDVLDRSCSRNWQDYGVREVDQVKRLTGPGLSEGPEPSISVMVTGGPWPTRLSRTSLHYLGEFGEDQIYEAHQQGRGALEALLCGGPQGACSEKVSATREEL
B4: human ERp23 Cys95Ser mutant (protein)
chain: DRAPLTATAPQLDDEEMYSAHMPAHLRCDACRAVAYQMWQNLAKAETKLHTSNSGGRRELSELVYTDVLDRSSSRNWQDYGVREVDQVKRLTGPGLSEGPEPSISVMVTGGPWPTRLSRTCLHYLGEFGEDQIYEAHQQGRGALEALLCGGPQGACSEKVSATREEL
B5: human ERp23 Cys50Ser mutant (protein)
chain: DRAPLTATAPQLDDEEMYSAHMPAHLRSDACRAVAYQMWQNLAKAETKLHTSNSGGRRELSELVYTDVLDRSCSRNWQDYGVREVDQVKRLTGPGLSEGPEPSISVMVTGGPWPTRLSRTCLHYLGEFGEDQIYEAHQQGRGALEALLCGGPQGACSEKVSATREEL
B6: human ERp23 Cys178Ser mutant (protein)
chain: DRAPLTATAPQLDDEEMYSAHMPAHLRCDACRAVAYQMWQNLAKAETKLHTSNSGGRRELSELVYTDVLDRSCSRNWQDYGVREVDQVKRLTGPGLSEGPEPSISVMVTGGPWPTRLSRTCLHYLGEFGEDQIYEAHQQGRGALEALLCGGPQGASSEKVSATREEL
B7: human ERp23 Cys50-178Ser mutant (protein)
chain: DRAPLTATAPQLDDEEMYSAHMPAHLRSDACRAVAYQMWQNLAKAETKLHTSNSGGRRELSELVYTDVLDRSCSRNWQDYGVREVDQVKRLTGPGLSEGPEPSISVMVTGGPWPTRLSRTCLHYLGEFGEDQIYEAHQQGRGALEALLCGGPQGASSEKVSATREEL
B8: human ERp23 Cys171Ser mutant (protein)
chain: DRAPLTATAPQLDDEEMYSAHMPAHLRCDACRAVAYQMWQNLAKAETKLHTSNSGGRRELSELVYTDVLDRSCSRNWQDYGVREVDQVKRLTGPGLSEGPEPSISVMVTGGPWPTRLSRTCLHYLGEFGEDQIYEAHQQGRGALEALLSGGPQGACSEKVSATREEL

In this series the target is HA-tagged mini HC (VH-CH1).
Consider B1, for which the “oxidation of the CH1 domain of the mini HC” value (“oxidation” for short) is “co-expression of wild-type human ERp23 resulted in oxidation of the CH1 domain in a portion of the HC even in the absence of LC” and the “percentage of the fully oxidized form of the mini HC” value is recorded as “fully oxidizes ˜24% of the mini HC”. In the case of B2, the “oxidation” value is “All of the remaining single cysteine mutants had significantly reduced activity, which in most cases was similar to that observed when no ERp23 was co-expressed”.

B3: the “oxidation” value is given as “All of the remaining single cysteine mutants had significantly reduced activity, which in most cases was similar to that observed when no ERp23 was co-expressed”. For the protein B4, the “oxidation” value is recorded as “All of the remaining single cysteine mutants had significantly reduced activity, which in most cases was similar to that observed when no ERp23 was co-expressed”. For the protein B5, the “percentage of the fully oxidized form of the mini HC” value is “showed a similar ability to oxidize the CH1 domain (i.e., 20%)”. Take B6: the “oxidation” value is “also showed some activity, although it was slightly weaker than that observed with wild-type ERp23 or the Cys50Ser mutant”. For B7, the “oxidation” value was “only the Cys50-178Ser mutant still retained activity”.

In the case of B8, the “oxidation” value is listed as “All of the remaining single cysteine mutants had significantly reduced activity, which in most cases was similar to that observed when no ERp23 was co-expressed”.

The record behind these values is US20090269810.
